The values that follow come from PMC4452151 (Cancer Science, 2015).

In one test the target is CD3 on T cells (Homo sapiens (endogenous, Jurkat cells …, UniProt P07766)). In words: flow cytometry on cells. (In general: In flow cytometry, cells or beads pass a laser one at a time.)
The target in test [1] is recombinant human CD138 protein (Homo sapiens (Human)., UniProt P18827, biotin (in the bio-layer interferometry experiment only)). The test is described as follows: BLI.
recombinant human CD138 protein, sequence (P18827 23-254): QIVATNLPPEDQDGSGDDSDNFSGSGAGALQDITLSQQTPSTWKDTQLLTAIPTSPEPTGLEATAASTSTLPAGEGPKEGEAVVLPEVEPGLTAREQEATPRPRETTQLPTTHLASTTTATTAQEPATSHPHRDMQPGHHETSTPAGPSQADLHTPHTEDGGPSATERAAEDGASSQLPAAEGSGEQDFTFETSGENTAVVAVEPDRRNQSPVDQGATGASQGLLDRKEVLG

CD3 on T cells (Homo sapiens, sequence (P07766 23-207): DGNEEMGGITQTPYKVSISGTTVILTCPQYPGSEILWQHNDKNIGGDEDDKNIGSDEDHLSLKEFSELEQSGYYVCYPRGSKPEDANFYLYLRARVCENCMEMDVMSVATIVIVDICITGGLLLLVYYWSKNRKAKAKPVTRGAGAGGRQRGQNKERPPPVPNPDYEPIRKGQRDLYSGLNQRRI

B1: aCD138-ScFv-hIgFc (scFv, V domains shown)
VH: QVQLQQSGSELMMPGASVKISCKATGYTFSNYWIEWVKQRPGHGLEWIGEILPGTGRTIYNEKFKGKATFTADISSNTVQMQLSSLTSEDSAVYYCARRDYYGNFYYAMDYWGQGTSVTVSS
VL: DIQMTQSTSSLSASLGDRVTISCSASQGINNYLNWYQQKPDGTVELLIYYTSTLQSGVPSRFSGSGSGTDYSLTISNLEPEDIGTYYCQQYSKLPRTFGGGTKLEIK
For orientation: Kd means the concentration at which binding is half-saturated. As for B1, the binding result with CD3 on T cells was “no binding (tested: 10 μg/mL)”. For the same molecule, the Kd in test [1] turned out to be 13.5 nM.
